# Results: PMC6100724, “Proteome‐wide analysis of phospho‐regulated PDZ domain interactions” (Molecular Systems Biology, 2018)
# Assays:
# [1] = system: GST‐tagged Scribble PDZ1; experiment: GST-pulldown from HEK293 lysates with GST-tagged Scribble PDZ1; type: binding, human; settings: Flag‐tagged full-length protein over-expressed in HEK293 cells; anti‐Flag detection
# Excerpt: (§1) pDONR223‐RPS6KA2 (Johannessen et al, 2010) was a gift from William Hahn & David Root (Addgene plasmid # 23530). The gene was PCR‐amplified introducing HindIII and EcoRI restriction sites along with the C‐terminal phosphomimetic (S730E) or phosphoinhibiting (S730A) mutations, or the PDZbm deletion (T731‐L733). pKH3‐human RSK1 was a gift from John Blenis (Addgene plasmid # 13841; Richards et al, 2001). The gene was PCR‐amplified introducing HindIII and EcoRI restriction sites, and a and PDZbm deletion (T733‐L735) was generated. The genes (wild type and mutants) were cloned into 3xFlag CMV‐10 vector and subjected to Sanger sequencing. […]
# (§2) The plasmids encoding 3xFlag RPS6KA2 wild type and mutants thereof, 3xFlag RPS6KA1 and mutants thereof, and GFP‐tagged full‐length human Scribble (Navarro et al, 2005) were Midipreped using PureLink HiPure Plasmid Midiprep Kit (Invitrogen). […] The membranes were immunoblotted with anti‐Flag (ab1162; Abcam), anti‐GFP (ab6556; Abcam), and anti‐actin (ab1801; Abcam) primary antibodies followed by HRP‐conjugated anti rabbit secondary antibody (Life technologies) and detected with Amersham ECL Western Blotting Detection Reagent (GE Healthcare), and exposed to high‐performance chemiluminescence film (Amersham Hyperfilm ECL; GE Healthcare) for 30–180 s and developed and fixed using GBX developer and fixer (Carestream Dental).
# [2] = system: GFP‐tagged full‐length Scribble; experiment: Co-immunoprecipitation in HEK293 cells; type: binding, human; settings: transient expression in HEK293 cells; anti‐Flag beads; anti‐Flag and anti‐GFP detection
# Excerpt: as §1, §2
Molecule,GST‐pulldown with GST‐tagged Scribble PDZ1 [1],co‐IP with GFP‐tagged full‐length Scribble [2]
"Flag‐tagged RPS6KA1: Flag‐tagged full-length wild-type RPS6KA1 expressed in HEK293 cells (protein, UniProt Q15418 1-735, looked up, full-length Flag tag, Flag‐tagged full-length wild-type RPS6KA1 expressed in HEK293 cells) MPLAQLKEPWPLMELVPLDPENGQTSGEEAGLQPSKDEGVLKEISITHHVKAGSEKADPSHFELLKVLGQGSFGKVFLVRKVTRPDSGHLYAMKVLKKATLKVRDRVRTKMERDILADVNHPFVVKLHYAFQTEGKLYLILDFLRGGDLFTRLSKEVMFTEEDVKFYLAELALGLDHLHSLGIIYRDLKPENILLDEEGHIKLTDFGLSKEAIDHEKKAYSFCGTVEYMAPEVVNRQGHSHSADWWSYGVLMFEMLTGSLPFQGKDRKETMTLILKAKLGMPQFLSTEAQSLLRALFKRNPANRLGSGPDGAEEIKRHVFYSTIDWNKLYRREIKPPFKPAVAQPDDTFYFDTEFTSRTPKDSPGIPPSAGAHQLFRGFSFVATGLMEDDGKPRAPQAPLHSVVQQLHGKNLVFSDGYVVKETIGVGSYSECKRCVHKATNMEYAVKVIDKSKRDPSEEIEILLRYGQHPNIITLKDVYDDGKHVYLVTELMRGGELLDKILRQKFFSEREASFVLHTIGKTVEYLHSQGVVHRDLKPSNILYVDESGNPECLRICDFGFAKQLRAENGLLMTPCYTANFVAPEVLKRQGYDEGCDIWSLGILLYTMLAGYTPFANGPSDTPEEILTRIGSGKFTLSGGNWNTVSETAKDLVSKMLHVDPHQRLTAKQVLQHPWVTQKDKLPQSQLSHQDLQLVKGAMAATYSALNSSKPTPQLKPIESSILAQRRVRKLPSTTL",interaction was further confirmed,
"RPS6KA2 S730E: Flag‐tagged full-length RPS6KA2 phosphomimetic mutant expressed in HEK293 cells (protein, left off: 3xFlag, end not stated, kept, Flag‐tagged full-length RPS6KA2 phosphomimetic mutant expressed in HEK293 cells) MDLSMKKFAVRRFFSVYLRRKSRSKSSSLSRLEEEGVVKEIDISHHVKEGFEKADPSQFELLKVLGQGSYGKVFLVRKVKGSDAGQLYAMKVLKKATLKVRDRVRSKMERDILAEVNHPFIVKLHYAFQTEGKLYLILDFLRGGDLFTRLSKEVMFTEEDVKFYLAELALALDHLHSLGIIYRDLKPENILLDEEGHIKITDFGLSKEAIDHDKRAYSFCGTIEYMAPEVVNRRGHTQSADWWSFGVLMFEMLTGSLPFQGKDRKETMALILKAKLGMPQFLSGEAQSLLRALFKRNPCNRLGAGIDGVEEIKRHPFFVTIDWNTLYRKEIKPPFKPAVGRPEDTFHFDPEFTARTPTDSPGVPPSANAHHLFRGFSFVASSLIQEPSQQDLHKVPVHPIVQQLHGNNIHFTDGYEIKEDIGVGSYSVCKRCVHKATDTEYAVKIIDKSKRDPSEEIEILLRYGQHPNIITLKDVYDDGKFVYLVMELMRGGELLDRILRQRYFSEREASDVLCTITKTMDYLHSQGVVHRDLKPSNILYRDESGSPESIRVCDFGFAKQLRAGNGLLMTPCYTANFVAPEVLKRQGYDAACDIWSLGILLYTMLAGFTPFANGPDDTPEEILARIGSGKYALSGGNWDSISDAAKDVVSKMLHVDPHQRLTAMQVLKHPWVVNREYLSPNQLSRQDVHLVKGAMAATYFALNRTPQAPRLEPVLSSNLAQRRGMKRLTETRL",confirmed an interaction,strong co‐IP
